How the values were obtained:
[1] = test system: HeLa Kyoto; experiment: thermal stability score vs G1/S (z-score of summed log2 fold changes over temperatures); higher = more thermally stable than in G1/S
[2] = test system: HeLa Kyoto; experiment: solubility in G1/S (NP-40 vs SDS abundance) (log2 ratio); higher = more soluble; conditions: cell cycle stage: G1/S
[3] = test system: HeLa Kyoto; experiment: melting temperature (median over replicates), in situ; higher = more thermally stable
[4] = test system: HeLa Kyoto; experiment: solubility change mitosis vs G1/S (difference of NP-40 vs SDS log2 ratios) (log2 ratio difference); higher = more soluble in mitosis
[5] = cell cycle stage: early G1 (4.5 h after nocodazole release)
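For melting temperature (median over replicates), in situ in this document: HeLa Kyoto cells synchronized by double thymidine or nocodazole block, proteins quantified by TMT10plex mass spectrometry, three independent biological replicates.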
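For solubility change mitosis vs G1/S (difference of NP-40 vs SDS log2 ratios) in this document: synchronized HeLa Kyoto cells (double thymidine block for G1/S, nocodazole release for mitosis), protein amounts in NP-40 versus SDS lysates quantified by mass spectrometry, three biological replicates.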
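For solubility in G1/S (NP-40 vs SDS abundance) in this document: HeLa Kyoto cells arrested at G1/S by double thymidine block, proteins quantified by TMT10plex mass spectrometry in mild NP-40 versus SDS extracts, three biological replicates.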
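For thermal stability score vs G1/S (z-score of summed log2 fold changes over temperatures) in this document: synchronized HeLa Kyoto cells, proteins quantified by TMT10plex mass spectrometry, three biological replicates, mitosis taken 0.5 h after nocodazole release, G1/S directly after double thymidine block.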

HDGFRP2, sequence (chain, as listed by the source): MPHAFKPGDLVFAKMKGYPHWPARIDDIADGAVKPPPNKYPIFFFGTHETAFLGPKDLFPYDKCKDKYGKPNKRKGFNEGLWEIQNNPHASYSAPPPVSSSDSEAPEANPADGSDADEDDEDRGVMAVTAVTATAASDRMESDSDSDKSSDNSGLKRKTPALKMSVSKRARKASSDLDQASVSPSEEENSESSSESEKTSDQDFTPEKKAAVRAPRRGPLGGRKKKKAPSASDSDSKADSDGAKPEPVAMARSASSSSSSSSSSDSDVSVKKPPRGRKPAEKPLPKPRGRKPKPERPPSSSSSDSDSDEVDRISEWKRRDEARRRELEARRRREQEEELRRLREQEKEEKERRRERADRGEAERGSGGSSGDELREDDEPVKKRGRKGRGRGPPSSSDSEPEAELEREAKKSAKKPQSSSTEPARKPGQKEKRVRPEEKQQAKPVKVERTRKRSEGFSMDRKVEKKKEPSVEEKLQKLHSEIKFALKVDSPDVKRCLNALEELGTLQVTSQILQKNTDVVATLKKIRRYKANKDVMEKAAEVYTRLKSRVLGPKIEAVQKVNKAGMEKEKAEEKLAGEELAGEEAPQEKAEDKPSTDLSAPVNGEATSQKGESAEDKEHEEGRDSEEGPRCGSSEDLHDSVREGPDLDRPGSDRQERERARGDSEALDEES
TXNDC12, sequence (chain, as listed by the source): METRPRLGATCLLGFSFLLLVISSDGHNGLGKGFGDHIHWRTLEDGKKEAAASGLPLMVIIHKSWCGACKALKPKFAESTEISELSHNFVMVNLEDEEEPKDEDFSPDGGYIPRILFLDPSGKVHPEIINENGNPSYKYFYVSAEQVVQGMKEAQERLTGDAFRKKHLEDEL

Substance | thermal stability score [1, 5] | thermal stability score ([1]; cell cycle stage: mitosis) | solubility in G1/S (log2) [2] | melting temperature ([3]; cell cycle stage: G1/S) [°C] | melting temperature ([3]; cell cycle stage: mitosis) [°C] | solubility change mitosis (log2) [4]
HDGFRP2 | -0.27 | -1.13 | -0.376 | 54.3 | 53.9 | 0.275
MDPSLLRERELFKKRALSTPVVEKRSASSESSSSSSKKKKTKVEHGGSSGSKQNSDHSNGSFNLKALSGSSGYKFGVLAKIVNYMKTRHQRGDTHPLTLDEILDETQHLDIGLKQKQWLMTEALVNNPKIEVIDGKYAFKPKYNVRDKKALLRLLDQHDQRGLGGILLEDIEEALPNSQKAVKALGDQILFVNRPDKKKILFFNDKSCQFSVDEEFQKLWRSVTVDSMDEEKIEEYLKRQGISSMQESGPKKVAPIQRRKKPASQKKRRFKTHNEHLAGVLKDYSDITSSK [GTF2E2] | 1.36 | 3.1 | 0.797 | 48.9 | 50.2 | 0.135
MPAHLLQDDISSSYTTTTTITAPPSRVLQNGGDKLETMPLYLEDDIRPDIKDDIYDPTYKDKEGPSPKVEYVWRNIILMSLLHLGALYGITLIPTCKFYTWLWGVFYYFVSALGITAGAHRLWSHRSYKARLPLRLFLIIANTMAFQNDVYEWARDHRAHHKFSETHADPHNSRRGFFFSHVGWLLVRKHPAVKEKGSTLDLSDLEAEKLVMFQRRYYKPGLLMMCFILPTLVPWYFWGETFQNSVFVATFLRYAVVLNATWLVNSAAHLFGYRPYDKNISPRENILVSLGAVGEGFHNYHHSFPYDYSASEYRWHINFTTFFIDCMAALGLAYDRKKVSKAAILARIKRTGDGNYKSG [SCD] | 1.76 | -0.899 | -0.126 | 50.5 | 51.2 | -0.151
MADGDSGSERGGGGGPCGFQPASRGGGEQETQELASKRLDIQNKRFYLDVKQNAKGRFLKIAEVGAGGSKSRLTLSMAVAAEFRDSLGDFIEHYAQLGPSSPEQLAAGAEEGGGPRRALKSEFLVRENRKYYLDLKENQRGRFLRIRQTVNRGGGGFGAGPGPGGLQSGQTIALPAQGLIEFRDALAKLIDDYGGEDDELAGGPGGGAGGPGGGLYGELPEGTSITVDSKRFFFDVGCNKYGVFLRVSEVKPSYRNAITVPFKAWGKFGGAFCRYADEMKEIQERQRDKLYERRGGGSGGGEESEGEEVDED [PURB] | -1.12 | -5.37 | 0.381 | 54.2 | 54.1 | 0.0319
TXNDC12 | -0.513 | -0.814 | 0.365 | 53.5 | 54.2 | 0.232
MSWGTELWDQFDSLDKHTQWGIDFLERYAKFVKERIEIEQNYAKQLRNLVKKYCPKRSSKDEEPRFTSCVAFFNILNELNDYAGQREVVAEEMAHRVYGELMRYAHDLKTERKMHLQEGRKAQQYLDMCWKQMDNSKKKFERECREAEKAQQSYERLDNDTNATKADVEKAKQQLNLRTHMADENKNEYAAQLQNFNGEQHKHFYVVIPQIYKQLQEMDERRTIKLSECYRGFADSERKVIPIISKCLEGMILAAKSVDERRDSQMVVDSFKSGFEPPGDFPFEDYSQHIYRTISDGTISASKQESGKMDAKTTVGKAKGKLWLFGKKPKPQSPPLTPTSLFTSSTPNGSQFLTFSIEPVHYCMNEIKTGKPRIPSFRSLKRGWSVKMGPALEDFSHLPPEQRRKKLQQRIDELNRELQKESDQKDALNKMKDVYEKNPQMGDPGSLQPKLAETMNNIDRLRMEIHKNEAWLSEVEGKTGGRGDRRHSSDINHLVTQGRESPEGSYTDDANQEVRGPPQQHGHHNEFDDEFEDDDPLPAIGHCKAIYPFDGHNEGTLAMKEGEVLYIIEEDKGDGWTRARRQNGEEGYVPTSYIDVTLEKNSKGS [FNBP1L] | -0.0981 | -0.548 | 0.339 | 51.1 | 51.1 | -0.034
MDPAARVVRALWPGGCALAWRLGGRPQPLLPTQSRAGFAGAAGGPSPVAAARKGSPRLLGAAALALGGALGLYHTARWHLRAQDLHAERSAAQLSLSSRLQLTLYQYKTCPFCSKVRAFLDFHALPYQVVEVNPVRRAEIKFSSYRKVPILVAQEGESSQQLNDSSVIISALKTYLVSGQPLEEIITYYPAMKAVNEQGKEVTEFGNKYWLMLNEKEAQQVYGGKEARTEEMKWRQWADDWLVHLISPNVYRTPTEALASFDYIVREGKFGAVEGAVAKYMGAAAMYLISKRLKSRHRLQDNVREDLYEAADKWVAAVGKDRPFMGGQKPNLADLAVYGVLRVMEGLDAFDDLMQHTHIQPWYLRVERAITEASPAH [PTGES2] | 1.5 | 0.796 | 0.0509 | 54.6 | 54.9 | -0.0374

Reference: the supplement of paper PMC5998384
